The target of series [1] is human p63 full-length tetramerization domain variant, p63(356–411) (human). Nature of the series: native MS; nESI-MS of subunit exchange: equal amounts of 12C-14N and 13C-15N protein mixed, 10 μM each (monomer concentration), 500 mM ammonium acetate (pH 6.9), 37 °C; half-life of tetramer dissociation from kinetic modeling.
For series [2], the target named is human p63 tetramerization domain lacking the H2 helix, p63(359–388) (human). Nature of the series: crystal structure; p63(359–388) SeMet, sitting drop at 17 °C, 30% polyethylene glycol 400, 0.1 M Hepes (pH 7.5), 0.2 M Mg chloride; space group P1, one tetramer in the asymmetric unit; 1.9 Å.
Series [3] deals with human p63 tetramerization domain, p63(359–402) (human). Nature of the series: crystal structure; p63(359–402), sitting drop at 17 °C, 10% polyethylene glycol 8000, 0.1 M Hepes (pH 7.5), 0.2 M Ca acetate; space group P422, one monomer in the asymmetric unit; 2.15 Å.
Series [4] concerns the molecule itself. Nature of the series: native MS; nESI-MS of subunit exchange: equal amounts of 12C-14N and 13C-15N protein mixed, 10 μM each (monomer concentration), 500 mM ammonium acetate (pH 6.9), 37 °C; half-life of tetramer dissociation from kinetic modeling.
Series [5] deals with the molecule itself. The description is as above. The source holds these as a separate data set.

In series [1], “human p63 full-length tetramerization domain variant, p63(356–411) (domain or fragment)” returned a half-life of the tetramer, t1/2 of 7 min and a stoichiometry N of 4.
Molecule “human p63 tetramerization domain lacking the H2 helix, p63(359–388) (domain or fragment)” showed a stoichiometry N in series [2] of 4.
As to “human p63 tetramerization domain, p63(359–402) (domain or fragment)”, the stoichiometry N in series [3] is 4.

B1: human p73 full-length tetramerization domain variant, p73(351–399) (domain or fragment)
chain: GSDEDTYYLQVRGRENFEILMKLKESLELMELVPQPLVDSYRQQQQLLQRP
notes: Gly-Ser dipeptide left at the N terminus by the cloning strategy (after thrombin cleavage); human p73 tetramerization domain, residues 351-399; In the subunit exchange experiment an unlabeled (12C-14N) and a uniformly 13C-15N labeled sample of the same construct were mixed; also called p73 tetramerization domain; not shown: His6, N-terminal, cleaved; lipoyl domain, N-terminal, cleaved
As to B1, the “stoichiometry N” value in series [4] amounted to 4. Besides, in series [5], the “half-life of the tetramer, t1/2” value is 77 ± 5 min.

The term stoichiometry N denotes the number of molecules, sites or subunits per partner or assembly.

The record behind these values is PMC3277882, “Structure and Kinetic Stability of the p63 Tetramerization Domain” (Journal of Molecular Biology, 2012).
